Test results published in publication doi:10.1101/2020.12.31.424863 (bioRxiv, 2020).

T1: Smc6 (subunit of the budding yeast Smc5/6 holo-complex) (budding yeast, UniProt Q12749 1-1114)
T1 sequence: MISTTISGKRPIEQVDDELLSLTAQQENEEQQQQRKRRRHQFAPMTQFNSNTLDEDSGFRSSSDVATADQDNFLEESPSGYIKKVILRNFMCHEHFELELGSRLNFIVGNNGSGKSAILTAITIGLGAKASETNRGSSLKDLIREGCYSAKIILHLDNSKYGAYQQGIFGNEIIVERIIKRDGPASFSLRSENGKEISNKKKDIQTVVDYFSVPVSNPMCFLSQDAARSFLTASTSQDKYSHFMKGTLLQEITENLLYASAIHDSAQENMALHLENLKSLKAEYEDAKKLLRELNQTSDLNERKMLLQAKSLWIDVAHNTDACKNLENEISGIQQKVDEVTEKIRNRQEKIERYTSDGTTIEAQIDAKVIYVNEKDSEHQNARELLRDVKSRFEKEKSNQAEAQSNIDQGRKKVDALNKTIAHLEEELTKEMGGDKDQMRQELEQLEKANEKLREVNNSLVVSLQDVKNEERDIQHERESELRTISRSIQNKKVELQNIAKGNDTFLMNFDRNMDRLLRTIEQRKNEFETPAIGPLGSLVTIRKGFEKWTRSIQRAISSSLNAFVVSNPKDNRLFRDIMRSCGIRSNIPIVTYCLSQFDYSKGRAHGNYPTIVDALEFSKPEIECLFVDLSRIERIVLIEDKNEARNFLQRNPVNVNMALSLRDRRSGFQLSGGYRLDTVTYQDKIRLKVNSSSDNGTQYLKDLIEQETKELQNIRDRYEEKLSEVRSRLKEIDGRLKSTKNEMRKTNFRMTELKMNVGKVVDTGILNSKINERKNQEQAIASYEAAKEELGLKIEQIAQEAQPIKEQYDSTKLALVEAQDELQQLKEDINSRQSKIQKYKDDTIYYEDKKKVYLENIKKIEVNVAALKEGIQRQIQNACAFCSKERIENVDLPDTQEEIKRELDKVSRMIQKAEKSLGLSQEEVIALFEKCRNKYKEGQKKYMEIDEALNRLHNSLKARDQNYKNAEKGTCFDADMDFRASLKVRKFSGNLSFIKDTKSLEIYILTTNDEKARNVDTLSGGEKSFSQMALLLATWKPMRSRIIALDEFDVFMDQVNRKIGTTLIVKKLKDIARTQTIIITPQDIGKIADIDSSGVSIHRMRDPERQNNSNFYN

B1: Smc5 (subunit of the budding yeast Smc5/6 holo-complex) (natural protein)
chain: MTSLIDLGRYVERTHHGEDTEPRSKRVKIAKPDLSSFQPGSIIKIRLQDFVTYTLTEFNLSPSLNMIIGPNGSGKSTFVCAVCLGLAGKPEYIGRSKKVEDFIKNGQDVSKIEITLKNSPNVTDIEYIDARDETIKITRIITRSKRRSDYLINDYQVSESVVKTLVAQLNIQLDNLCQFLSQERVEEFARLKSVKLLVETIRSIDASLLDVLDELRELQGNEQSLQKDLDFKKAKIVHLRQESDKLRKSVESLRDFQNKKGEIELHSQLLPYVKVKDHKEKLNIYKEEYERAKANLRAILKDKKPFANTKKTLENQVEELTEKCSLKTDEFLKAKEKINEIFEKLNTIRDEVIKKKNQNEYYRGRTKKLQATIISTKEDFLRSQEILAQTHLPEKSVFEDIDIKRKEIINKEGEIRDLISEIDAKANAINHEMRSIQRQAESKTKSLTTTDKIGILNQDQDLKEVRDAVLMVREHPEMKDKILEPPIMTVSAINAQFAAYLAQCVDYNTSKALTVVDSDSYKLFANPILDKFKVNLRELSSADTTPPVPAETVRDLGFEGYLSDFITGDKRVMKMLCQTSKIHTIPVSRRELTPAQIKKLITPRPNGKILFKRIIHGNRLVDIKQSAYGSKQVFPTDVSIKQTNFYQGSIMSNEQKIRIENEIINLKNEYNDRKSTLDALSNQKSGYRHELSELASKNDDINREAHQLNEIRKKYTMRKSTIETLREKLDQLKREARKDVSQKIKDIDDQIQQLLLKQRHLLSKMASSMKSLKNCQKELISTQILQFEAQNMDVSMNDVIGFFNEREADLKSQYEDKKKFVKEMRDTPEFQSWMREIRSYDQDTKEKLNKVAEKYEEEGNFNLSFVQDVLDKLESEIAMVNHDESAVTILDQVTAELRELEHTVPQQSKDLETIKAKLKEDHAVLEPKLDDIVSKISARFARLFNNVGSAGAVRLEKPKDYAEWKIEIMVKFRDNAPLKKLDSHTQSGGERAVSTVLYMIALQEFTSAPFRVVDEINQGMDSRNERIVHKAMVENACAENTSQYFLITPKLLTGLHYHEKMRIHCVMAGSWIPNPSEDPKMIHFGETSNYSFD
B2: Nse2 SUMO ligase (subunit of the budding yeast Smc5/6 holo-complex) (natural protein)
chain: MALNDNPIPKSVPLHPKSGKYFHNLHARDLSNIYQQCYKQIDETINQLVDSTSPSTIGIEEQVADITSTYKLLSTYESESNSFDEHIKDLKKNFKQSSDACPQIDLSTWDKYRTGELTAPKLSELYLNMPTPEPATMVNNTDTLKILKVLPYIWNDPTCVIPDLQNPADEDDLQIEGGKIELTCPITCKPYEAPLISRKCNHVFDRDGIQNYLQGYTTRDCPQAACSQVVSMRDFVRDPIMELRCKIAKMKESQEQDKRSSQAIDVL
B3: Nse6 (subunit of the budding yeast Smc5/6 holo-complex) (natural protein)
chain: MGSVNSSPNEEFETVPDSQISGFDSPLIPTSVGSYFRDDDDDEKVHPNFISDPENDSLNSDEEFSSLENSDLNLSGAKAESGDDFDPILKRTIISKRKAPSNNEDEEIVKTPRKLVNYVPLKIFNLGDSFDDTITTTVAKLQDLKKEILDSPRSNKSIVITSNTVAKSELQKSIKFSGSIPEIYLDVVTKETISDKYKDWHFISKNCHYEQLMDLEMKDTAYSFLFGSSRSQGKVPEFVHLKCPSITNLLVLFGVNQEKCNSLKINYEKKENSRYDNLCTIFPVNKMLKFLMYFYSDDDNDDVREFFLKAFICLILDRKVFNAMESDHRLCFKVLELFNEAHFINSYFEIVDKNDFFLHYRLLQIFPHLQSALLRRRFSEKQGRTETIQQNIIKEFNEFFDCKNYKNLLYFILTMYGSKFIPFGPKCQVTEYFKDCILDISNETTNDVEISILKGILNLFSKIR
B4: Nse5 (subunit of the budding yeast Smc5/6 holo-complex) (natural protein)
chain: MDGALINSVLYVSPRNGAHYFVELTEKHLLAFEMLNSMCLLENYDHVLLFLECQFGKSHNLAVIPFDIILVLFTLSTLSEYYKEPILRANDPYNTSRETLSRRALKLLQKYLAILKEFDSEQYNLYDLELLRCQFFLAIDTLTPKKQKWGFDRFRRTKSESGVTYRQNASVDPELDQAKTFKNPYRSYISCLEQRNTILGNRLLNLKLNEPGEFINMILWTLSNSLQESTPLFLSSHEIWMPLLEILIDLFSCRQDYFIQHEVAQNVSKSLFVQRLSESPLAVFFESLNTRNFANRFSEYVFLNCDYKLPSDNYATPVHPVYNGENTIVDTYIPTIKCSPLYKSQKSLALRRKLIGSCFKLLLRVPDGHRLITPRIVADDVIQGISRTLASFNDILQFKKFFMTENLSQESYFIPLLAEGTLSEILKDTQECVVILTLVENLSDGVSFCNEVIGLVKSKCFAFTEQCSQASYEEAVLNIEKCDVCLLVLLRYLLHLIGTEAILDAKEQLEMLHAIEKNDSGRRQWAKALNLGNDPPLLYPIVSQMFGVHDKSVIIE

What was measured:
[1] = molecular target: T1, Smc6 (subunit of the budding yeast …); test: negative stain EM
[2] = molecular target: B1; test: cross-linking
[3] = molecular target: T1, Smc6 (subunit of the budding yeast …); test: cross-linking
[4] = molecular target: B3; test: cross-linking
[5] = molecular target: B4; test: cross-linking

| Binder | binding result [1] | binding result [2] | binding result [3] | binding result [4] | binding result [5] |
| --- | --- | --- | --- | --- | --- |
| B1 | binds |  |  |  |  |
| B2 |  | binds | binds | binds |  |
| B3 |  | binds | binds |  | binds |
| B4 |  | binds | binds |  |  |
